This passage reports stoichiometry N results from publication doi:10.1101/2024.01.10.575067.

This experiment has as its target tetra-Cys human GAPDH (TC-hGAPDH), bacterially expressed and purified (human) (UniProt P04406). The experiment in a line: SEC. A general note: Size exclusion chromatography separates by hydrodynamic size, large species first.

As a reminder, the stoichiometry N is the number of molecules, sites or subunits per partner or assembly. As to “tetra-Cys human GAPDH (TC-hGAPDH), bacterially expressed and purified (from UniProt P04406 1-335) (enzyme)”, the stoichiometry N is 4.
